T1: human EphB3 (human, UniProt P54753 34-998)
T1 construct: whole, on cells; also called Eph receptor B3
T1 sequence (looked up): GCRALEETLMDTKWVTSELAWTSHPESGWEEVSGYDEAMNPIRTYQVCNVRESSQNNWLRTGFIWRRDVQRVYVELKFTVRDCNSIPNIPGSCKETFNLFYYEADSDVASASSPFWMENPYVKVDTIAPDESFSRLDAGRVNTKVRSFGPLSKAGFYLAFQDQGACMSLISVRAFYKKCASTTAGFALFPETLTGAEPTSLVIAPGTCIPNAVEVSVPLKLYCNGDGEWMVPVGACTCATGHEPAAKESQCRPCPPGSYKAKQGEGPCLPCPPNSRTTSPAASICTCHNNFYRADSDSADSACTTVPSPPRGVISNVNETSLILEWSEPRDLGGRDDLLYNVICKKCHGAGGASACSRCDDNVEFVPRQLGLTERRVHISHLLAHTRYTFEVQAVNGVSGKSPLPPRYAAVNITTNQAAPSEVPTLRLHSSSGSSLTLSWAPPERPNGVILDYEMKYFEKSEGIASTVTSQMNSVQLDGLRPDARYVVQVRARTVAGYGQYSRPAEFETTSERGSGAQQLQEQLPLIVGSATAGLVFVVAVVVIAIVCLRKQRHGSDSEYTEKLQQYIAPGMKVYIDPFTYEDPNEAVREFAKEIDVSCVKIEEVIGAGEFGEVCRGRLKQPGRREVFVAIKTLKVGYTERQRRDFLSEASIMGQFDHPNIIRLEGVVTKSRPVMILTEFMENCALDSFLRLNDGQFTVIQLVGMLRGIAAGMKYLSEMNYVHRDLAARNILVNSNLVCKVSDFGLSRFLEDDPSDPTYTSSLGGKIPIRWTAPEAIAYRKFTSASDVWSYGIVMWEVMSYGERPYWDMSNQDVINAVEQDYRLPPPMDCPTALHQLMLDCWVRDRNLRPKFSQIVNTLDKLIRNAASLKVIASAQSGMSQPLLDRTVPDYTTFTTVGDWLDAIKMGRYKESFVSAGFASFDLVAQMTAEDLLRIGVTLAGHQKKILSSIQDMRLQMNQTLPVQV


Tests used:
mouse VEGFR2 = target: T2, mouse VEGFR2 (mouse, UniProt P35918 20-1345); assay: co-immunoprecipitation from cotransfected 293T cells
T2 construct: whole, on cells
T2 sequence (P35918 20-1345): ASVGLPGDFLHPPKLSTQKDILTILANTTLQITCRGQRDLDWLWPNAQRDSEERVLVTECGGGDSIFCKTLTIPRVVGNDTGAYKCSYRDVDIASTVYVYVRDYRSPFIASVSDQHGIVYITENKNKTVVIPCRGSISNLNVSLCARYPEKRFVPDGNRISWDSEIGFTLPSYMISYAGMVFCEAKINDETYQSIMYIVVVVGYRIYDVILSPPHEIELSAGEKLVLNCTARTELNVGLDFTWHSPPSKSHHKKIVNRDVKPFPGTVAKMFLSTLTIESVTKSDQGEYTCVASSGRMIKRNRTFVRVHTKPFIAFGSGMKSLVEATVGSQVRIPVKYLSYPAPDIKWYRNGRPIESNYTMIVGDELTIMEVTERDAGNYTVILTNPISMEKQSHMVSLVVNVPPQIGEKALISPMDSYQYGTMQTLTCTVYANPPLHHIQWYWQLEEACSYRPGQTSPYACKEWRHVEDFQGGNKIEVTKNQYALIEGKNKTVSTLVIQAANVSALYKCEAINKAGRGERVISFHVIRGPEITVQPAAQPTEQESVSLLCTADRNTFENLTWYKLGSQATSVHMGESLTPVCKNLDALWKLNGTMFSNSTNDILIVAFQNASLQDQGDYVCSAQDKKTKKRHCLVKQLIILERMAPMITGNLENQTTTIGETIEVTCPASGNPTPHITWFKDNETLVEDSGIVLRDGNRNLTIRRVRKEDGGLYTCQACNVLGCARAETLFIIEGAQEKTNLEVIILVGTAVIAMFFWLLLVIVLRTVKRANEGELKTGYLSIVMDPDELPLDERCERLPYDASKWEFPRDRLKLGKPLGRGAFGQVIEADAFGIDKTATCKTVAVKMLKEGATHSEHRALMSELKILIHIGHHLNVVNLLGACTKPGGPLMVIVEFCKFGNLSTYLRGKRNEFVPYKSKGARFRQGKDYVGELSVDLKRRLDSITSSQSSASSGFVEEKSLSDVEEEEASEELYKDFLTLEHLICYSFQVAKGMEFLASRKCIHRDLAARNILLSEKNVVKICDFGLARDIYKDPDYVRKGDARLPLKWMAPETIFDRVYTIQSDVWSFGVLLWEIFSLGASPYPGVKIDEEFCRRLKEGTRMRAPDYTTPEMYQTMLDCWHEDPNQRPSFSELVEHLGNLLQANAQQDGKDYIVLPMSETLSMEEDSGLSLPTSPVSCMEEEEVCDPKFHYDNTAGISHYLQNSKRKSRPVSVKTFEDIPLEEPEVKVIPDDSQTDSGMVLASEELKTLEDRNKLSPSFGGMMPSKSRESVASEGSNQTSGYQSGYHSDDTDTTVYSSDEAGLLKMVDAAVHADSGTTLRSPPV

human EGFR = target: T3, human EGFR (human, UniProt P00533 25-1210); assay: as above
T3 construct: whole, on cells

mouse TIE2 = target: T4, mouse TIE2 (mouse, UniProt Q02858 23-1122); assay: as above
T4 construct: whole, on cells
T4 sequence (Q02858 23-1122): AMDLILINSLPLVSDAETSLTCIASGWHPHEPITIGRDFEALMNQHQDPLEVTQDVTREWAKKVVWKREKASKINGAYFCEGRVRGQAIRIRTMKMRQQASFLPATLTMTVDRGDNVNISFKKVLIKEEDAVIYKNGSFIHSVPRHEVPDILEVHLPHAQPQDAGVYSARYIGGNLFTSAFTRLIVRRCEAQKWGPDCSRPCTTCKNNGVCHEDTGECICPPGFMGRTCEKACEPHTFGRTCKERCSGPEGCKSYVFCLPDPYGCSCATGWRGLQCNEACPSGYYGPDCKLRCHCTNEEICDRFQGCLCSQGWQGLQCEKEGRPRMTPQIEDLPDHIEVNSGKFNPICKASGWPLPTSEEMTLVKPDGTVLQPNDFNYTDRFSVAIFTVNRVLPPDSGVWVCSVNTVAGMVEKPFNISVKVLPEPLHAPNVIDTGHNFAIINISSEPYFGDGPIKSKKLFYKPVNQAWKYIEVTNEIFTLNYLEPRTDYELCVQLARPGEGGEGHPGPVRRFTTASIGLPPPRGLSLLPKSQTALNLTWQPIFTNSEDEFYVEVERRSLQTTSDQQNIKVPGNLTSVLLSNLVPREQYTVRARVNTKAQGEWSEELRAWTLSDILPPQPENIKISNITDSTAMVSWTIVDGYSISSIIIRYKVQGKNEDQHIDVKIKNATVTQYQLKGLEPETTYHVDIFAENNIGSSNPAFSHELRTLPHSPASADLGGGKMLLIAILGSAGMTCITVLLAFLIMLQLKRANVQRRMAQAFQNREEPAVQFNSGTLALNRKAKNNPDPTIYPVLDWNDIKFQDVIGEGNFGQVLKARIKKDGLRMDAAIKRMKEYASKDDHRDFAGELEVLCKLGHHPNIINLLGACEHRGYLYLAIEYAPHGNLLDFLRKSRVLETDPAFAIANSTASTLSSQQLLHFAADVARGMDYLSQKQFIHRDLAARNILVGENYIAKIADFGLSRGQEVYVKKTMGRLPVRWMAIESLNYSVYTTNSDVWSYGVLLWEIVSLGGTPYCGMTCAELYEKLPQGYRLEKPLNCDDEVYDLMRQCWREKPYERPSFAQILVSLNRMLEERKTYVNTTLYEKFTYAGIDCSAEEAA

human EphB3 = target: T1, human EphB3; assay: anti-Myc immunoprecipitation from 293T cells co-expressing RYK, AF-6 and EphB3 (FIG. 4b)
Procedure: Lysis and subsequent analysis of complexes in triple-transfected cells was performed as previously described (13). The inventors prepared embryonic and tissue lysates by Dounce homogenization. The inventors cleared lysates of insoluble debris by centrifugation, and performed immunoprecipitation from cleared lysates containing equal amounts of total protein as assessed by the BCA assay (Pierce). Immune complexes were captured by incubation with protein A-, G- or L-conjugated beads. The mouse anti-RYK monoclonal antibody (IgMₓ isotype⁵) was covalently coupled to CNBr-activated Sepharose 4B (Pharmacia) at 1 mg/ml packed beads for immunoprecipitation or cross-linked it in solution using a goat anti-mouse IgM (Jackson Immunoresearch). The inventors used anti-FLAG monoclonal antibody M2 (Sigma) for immunoprecipitation as an affinity gel and for Western blotting in a biotinylated form. Anti-AF-6 monoclonal antibody (clone 35) was obtained from Transduction Laboratories and anti-Myc monoclonal antibody (clone 9E10) from Zymed Laboratories. Immune complexes were collected by centrifugation and washed three times in HNTG, eluted in 20-50 μL of 2×SDS-PAGE sample buffer containing 10% v/v 2-mercaptoethanol, fractionated by SDS-PAGE and electroblotted to Immobilon P (Millipore) for Western analysis. […]

endogenous mouse AF-6 = target: T5, endogenous mouse AF-6 (mouse, UniProt Q9QZQ1 1-1820, limits assumed); assay: co-immunoprecipitation from mouse tissue lysates, both directions (FIG. 4c)
T5 construct: also called Afadin
T5 sequence (Q9QZQ1 whole entry): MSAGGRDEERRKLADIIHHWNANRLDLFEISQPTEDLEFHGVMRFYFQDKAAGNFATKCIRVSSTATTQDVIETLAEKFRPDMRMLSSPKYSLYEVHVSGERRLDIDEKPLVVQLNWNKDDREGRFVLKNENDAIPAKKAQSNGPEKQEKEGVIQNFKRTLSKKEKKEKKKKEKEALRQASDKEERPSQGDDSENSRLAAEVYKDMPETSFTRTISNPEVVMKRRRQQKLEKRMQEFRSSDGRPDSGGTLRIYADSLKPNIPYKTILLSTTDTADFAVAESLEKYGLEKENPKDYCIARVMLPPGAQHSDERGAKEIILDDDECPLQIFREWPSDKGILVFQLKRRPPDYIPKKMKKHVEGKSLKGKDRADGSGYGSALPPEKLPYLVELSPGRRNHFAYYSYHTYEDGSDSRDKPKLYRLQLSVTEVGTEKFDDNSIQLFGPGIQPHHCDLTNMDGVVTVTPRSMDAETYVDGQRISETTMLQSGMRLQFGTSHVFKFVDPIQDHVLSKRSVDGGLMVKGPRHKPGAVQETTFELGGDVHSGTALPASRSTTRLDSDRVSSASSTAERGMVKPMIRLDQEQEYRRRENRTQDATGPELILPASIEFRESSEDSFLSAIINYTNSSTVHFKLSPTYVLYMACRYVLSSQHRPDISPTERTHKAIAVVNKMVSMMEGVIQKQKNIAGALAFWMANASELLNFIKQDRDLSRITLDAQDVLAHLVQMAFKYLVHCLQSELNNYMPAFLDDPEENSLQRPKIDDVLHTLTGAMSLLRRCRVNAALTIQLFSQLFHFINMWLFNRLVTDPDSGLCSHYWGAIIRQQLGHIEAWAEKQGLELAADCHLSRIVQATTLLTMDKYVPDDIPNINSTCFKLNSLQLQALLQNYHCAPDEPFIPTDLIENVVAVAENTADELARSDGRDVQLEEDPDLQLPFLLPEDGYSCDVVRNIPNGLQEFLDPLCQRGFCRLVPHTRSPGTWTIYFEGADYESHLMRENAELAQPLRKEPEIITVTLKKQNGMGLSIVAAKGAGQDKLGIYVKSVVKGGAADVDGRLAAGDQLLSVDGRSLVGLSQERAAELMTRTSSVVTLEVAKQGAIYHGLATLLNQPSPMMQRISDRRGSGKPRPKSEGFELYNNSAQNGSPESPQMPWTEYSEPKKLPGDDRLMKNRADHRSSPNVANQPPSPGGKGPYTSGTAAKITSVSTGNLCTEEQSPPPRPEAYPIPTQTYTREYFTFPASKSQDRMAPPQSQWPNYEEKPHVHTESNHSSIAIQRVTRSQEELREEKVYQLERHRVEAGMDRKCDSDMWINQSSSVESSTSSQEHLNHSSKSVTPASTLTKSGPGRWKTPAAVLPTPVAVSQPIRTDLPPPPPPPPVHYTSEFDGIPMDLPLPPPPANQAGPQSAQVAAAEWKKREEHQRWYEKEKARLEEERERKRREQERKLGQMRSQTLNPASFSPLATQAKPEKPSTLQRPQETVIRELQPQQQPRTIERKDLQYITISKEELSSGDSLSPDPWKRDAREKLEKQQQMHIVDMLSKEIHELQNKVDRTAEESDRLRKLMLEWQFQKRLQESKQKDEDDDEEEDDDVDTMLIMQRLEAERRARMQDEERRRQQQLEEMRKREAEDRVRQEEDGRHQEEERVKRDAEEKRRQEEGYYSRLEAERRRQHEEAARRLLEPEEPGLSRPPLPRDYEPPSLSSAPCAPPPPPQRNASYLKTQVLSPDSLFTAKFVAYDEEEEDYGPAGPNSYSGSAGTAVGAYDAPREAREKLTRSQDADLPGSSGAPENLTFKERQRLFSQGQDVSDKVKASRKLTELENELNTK

| binding result (mouse VEGFR2) | binding result (human EGFR) | binding result (mouse TIE2) | binding result (human EphB3) | binding result (endogenous mouse AF-6) | Binder |
| --- | --- | --- | --- | --- | --- |
| no binding | no binding | no binding | binds |  | Myc2.RYK (double Myc epitope-tagged mouse RYK) (receptor, UniProt Q01887 35-594, looked up, not shown: small tags and cut ends, mature; also called wild-type RYK) RSPALAAAPAGPSVSLYLSEDEVRRLLGLDAELYYVRNDLISHYALSFNLLVPSETNFLHFTWHAKSKVEYKLGFQVDNFVAMGMPQVNISAQGEVPRTLSVFRVELSCTGKVDSEVMILMQLNLTVNSSKNFTVLNFKRRKMCYKKLEEVKTSALDKNTSRTIYDPVHAAPTTSTRVFYISVGVCCAVIFLVAIILAVLHLHSMKRIELDDSISASSSSQGLSQPSTQTTQYLRADTPNNATPITSSSGYPTLRIEKNDLRSVTLLEAKAKVKDIAISRERITLKDVLQEGTFGRIFHGILVDEKDPNKEKQTFVKTVKDQASEVQVTMMLTESCKLRGLHHRNLLPITHVCIEEGEKPMVVLPYMNWGNLKLFLRQCKLVEANNPQAISQQDLVHMAIQIACGMSYLARREVIHRDLAARNCVIDDTLQVKITDNALSRDLFPMDYHCLGDNENRPVRWMALESLVNNEFSSASDVWAFGVTLWELMTLGQTPYVDIDPFEMAAYLKDGYRIAQPINCPDELFAVMACCWALDPEERPKFQQLVQCLTEFHAALGAYV |
|  |  |  |  | binds | endogenous mouse RYK (receptor, UniProt Q01887 35-594, looked up, also called RYK beta subunit) RSPALAAAPAGPSVSLYLSEDEVRRLLGLDAELYYVRNDLISHYALSFNLLVPSETNFLHFTWHAKSKVEYKLGFQVDNFVAMGMPQVNISAQGEVPRTLSVFRVELSCTGKVDSEVMILMQLNLTVNSSKNFTVLNFKRRKMCYKKLEEVKTSALDKNTSRTIYDPVHAAPTTSTRVFYISVGVCCAVIFLVAIILAVLHLHSMKRIELDDSISASSSSQGLSQPSTQTTQYLRADTPNNATPITSSSGYPTLRIEKNDLRSVTLLEAKAKVKDIAISRERITLKDVLQEGTFGRIFHGILVDEKDPNKEKQTFVKTVKDQASEVQVTMMLTESCKLRGLHHRNLLPITHVCIEEGEKPMVVLPYMNWGNLKLFLRQCKLVEANNPQAISQQDLVHMAIQIACGMSYLARREVIHRDLAARNCVIDDTLQVKITDNALSRDLFPMDYHCLGDNENRPVRWMALESLVNNEFSSASDVWAFGVTLWELMTLGQTPYVDIDPFEMAAYLKDGYRIAQPINCPDELFAVMACCWALDPEERPKFQQLVQCLTEFHAALGAYV |

From patent US20040115660A1 (published 2004)
